Holding throughout (test): two-hybrid library CCNG1;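 also: natural log of median RNA to DNA barcode read ratio; higher means stronger binding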
One test addresses T1, 4H619-bA.
T1 chain: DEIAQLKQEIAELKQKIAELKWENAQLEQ

The next test has as its target T2, 4H570-bA.
T2 chain: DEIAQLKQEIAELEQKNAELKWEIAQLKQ

In the next test the target is T3, 4H584-bA.
T3 chain: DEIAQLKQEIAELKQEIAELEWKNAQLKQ

Another test deals with T4, 4H850-bA.
T4 chain: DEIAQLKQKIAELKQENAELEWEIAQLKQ

In another test the target is T5, O11.
T5 chain: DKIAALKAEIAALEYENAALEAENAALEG

The target in another test is T6, 4H906-bA.
T6 chain: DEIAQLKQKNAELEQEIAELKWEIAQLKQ

Another test concerns the target T7, 4H953-bN.
T7 chain: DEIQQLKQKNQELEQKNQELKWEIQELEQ

The next test concerns the target T8, 4H56-bA.
T8 chain: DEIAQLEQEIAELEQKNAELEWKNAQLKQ

The target of the next test is T9, 4H264-bA.
T9 chain: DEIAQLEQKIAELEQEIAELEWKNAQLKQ

The next test concerns the target T10, O8-bS.
T10 chain: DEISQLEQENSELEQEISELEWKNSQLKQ

For the next test, the target named is T11, 4H796-bA.
T11 chain: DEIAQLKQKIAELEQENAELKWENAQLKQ

A further test has as its target T12, 4H932-bA.
T12 chain: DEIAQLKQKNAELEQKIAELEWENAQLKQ

A further test deals with T13, 4H3297-bA.
T13 chain: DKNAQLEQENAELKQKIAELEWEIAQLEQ

Another test concerns the target T14, 4H730-bA.
T14 chain: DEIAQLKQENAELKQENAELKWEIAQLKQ

A further test concerns the target T15, 4H3041-bA.
T15 chain: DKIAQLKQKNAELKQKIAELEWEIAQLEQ

The next test addresses T16, 4H3427-bA.
T16 chain: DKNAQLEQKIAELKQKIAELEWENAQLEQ

In a further test the target is T17, 4H349-bA.
T17 chain: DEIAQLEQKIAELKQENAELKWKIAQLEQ

A further test has as its target T18, 4H2859-bA.
T18 chain: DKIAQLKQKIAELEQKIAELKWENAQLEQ

Another test deals with T19, 4H2931-bA.
T19 chain: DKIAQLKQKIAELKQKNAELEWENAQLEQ

For another test, the target named is T20, 4H3364-bA.
T20 chain: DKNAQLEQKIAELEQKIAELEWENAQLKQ

The next test concerns the target T21, 4H3381-bA.
T21 chain: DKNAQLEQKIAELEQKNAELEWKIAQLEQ

The next test has as its target T22, P5SH.
T22 chain: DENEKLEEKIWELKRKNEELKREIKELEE

The target of the next test is T23, 4H2760-bA.
T23 chain: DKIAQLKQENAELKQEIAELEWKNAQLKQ

The next test concerns the target T24, 4H949-bA.
T24 chain: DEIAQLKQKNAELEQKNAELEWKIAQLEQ

For another test, the target named is T25, O6.
T25 chain: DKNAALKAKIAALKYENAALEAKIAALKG

A further test deals with T26, O5.
T26 chain: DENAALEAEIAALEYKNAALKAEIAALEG

For the next test, the target named is T27, O14.
T27 chain: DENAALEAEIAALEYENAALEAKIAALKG

The target of another test is T28, O3.
T28 chain: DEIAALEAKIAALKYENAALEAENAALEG

A further test addresses T29, O7.
T29 chain: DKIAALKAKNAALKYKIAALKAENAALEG

In a further test the target is T30, O12.
T30 chain: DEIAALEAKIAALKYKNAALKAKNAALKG

The target of another test is T31, O8.
T31 chain: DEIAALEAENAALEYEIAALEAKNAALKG

The next test has as its target T32, O16.
T32 chain: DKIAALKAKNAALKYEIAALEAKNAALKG

A further test deals with T33, P3A-bS.
T33 chain: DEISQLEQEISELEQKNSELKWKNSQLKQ

The target in a further test is T34, O15.
T34 chain: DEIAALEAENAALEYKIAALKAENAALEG

For a further test, the target named is T35, O9.
T35 chain: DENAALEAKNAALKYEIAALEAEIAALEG

For a further test, the target named is T36, O4.
T36 chain: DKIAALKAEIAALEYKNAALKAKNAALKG

A further test has as its target T37, O13.
T37 chain: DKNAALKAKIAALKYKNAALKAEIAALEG

In a further test the target is T38, O2.
T38 chain: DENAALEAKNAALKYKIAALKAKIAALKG

The target of the next test is T39, 4H3974-bN.
T39 chain: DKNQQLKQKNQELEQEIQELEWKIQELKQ

The next test addresses T40, 4H3298-bN.
T40 chain: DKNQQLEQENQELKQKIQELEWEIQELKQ

For another test, the target named is T41, 4H1985-bN.
T41 chain: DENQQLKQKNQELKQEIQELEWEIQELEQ

The next test deals with T42, 4H626-bN.
T42 chain: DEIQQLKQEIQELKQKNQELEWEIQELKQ

In a further test the target is T43, 4H3277-bN.
T43 chain: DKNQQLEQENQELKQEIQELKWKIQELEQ

A further test addresses T44, 4H3817-bN.
T44 chain: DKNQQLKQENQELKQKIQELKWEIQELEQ

The target of another test is T45, 4H1544-bN.
T45 chain: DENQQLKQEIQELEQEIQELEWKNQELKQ

For the next test, the target named is T46, 4H3497-bN.
T46 chain: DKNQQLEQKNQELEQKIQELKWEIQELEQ

The next test concerns the target T47, 4H906-bN.
T47 chain: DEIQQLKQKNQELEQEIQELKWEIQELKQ

The target in another test is T48, 4H1373-bN.
T48 chain: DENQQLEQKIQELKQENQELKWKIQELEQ

Another test concerns the target T49, 4H3926-bN.
T49 chain: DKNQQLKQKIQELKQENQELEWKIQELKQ

For a further test, the target named is T50, 4H850-bN.
T50 chain: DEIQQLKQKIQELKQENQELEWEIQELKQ

For the next test, the target named is T51, 4H1449-bN.
T51 chain: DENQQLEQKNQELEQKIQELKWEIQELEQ

A further test has as its target T52, 4H3628-bN.
T52 chain: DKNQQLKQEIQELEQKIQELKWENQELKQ

The target of another test is T53, 4H570-bN.
T53 chain: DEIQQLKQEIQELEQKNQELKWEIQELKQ

Another test concerns the target T54, P6bH1.
T54 chain: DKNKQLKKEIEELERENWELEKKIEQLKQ

In a further test the target is T55, 4H1899-bN.
T55 chain: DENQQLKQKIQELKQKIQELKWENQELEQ

The target of a further test is T56, 4H3858-bN.
T56 chain: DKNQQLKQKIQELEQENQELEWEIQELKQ

The next test has as its target T57, 4H1710-bN.
T57 chain: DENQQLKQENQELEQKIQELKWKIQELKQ

Another test addresses T58, 4H1348-bN.
T58 chain: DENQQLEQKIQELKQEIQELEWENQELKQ

A further test has as its target T59, 4H591-bN.
T59 chain: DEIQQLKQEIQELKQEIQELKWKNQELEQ

For a further test, the target named is T60, 4H3175-bN.
T60 chain: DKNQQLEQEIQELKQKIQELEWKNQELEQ

Another test has as its target T61, 4H3613-bN.
T61 chain: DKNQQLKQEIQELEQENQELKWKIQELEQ

A further test concerns the target T62, 4H3162-bN.
T62 chain: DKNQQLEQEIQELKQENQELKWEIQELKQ

The next test has as its target T63, 4H3462-bN.
T63 chain: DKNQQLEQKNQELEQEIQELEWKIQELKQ

Regarding DEIAQLKQEIAELEQKNAELKWEIAQLKQ [4H570-bA], the interaction score is -1.3 with 4H619-bA; -0.223 in the test with 4H570-bA; -1.33 with 4H584-bA; 1.98 with 4H850-bA; -0.882 with O11; 0.277 with 4H906-bA. This molecule came in with an interaction score with 4H953-bN of -0.0403.
Take DEIAQLEQKIAELEQEIAELEWKNAQLKQ [4H264-bA]: the interaction score was -0.504 with 4H56-bA; 1.38 with 4H264-bA; -1.91 with O8-bS; -0.521 with 4H796-bA; -0.419 with 4H932-bA; 0.896 in the test with 4H3297-bA. The interaction score with 4H730-bA was -1.63; with 4H3041-bA, 2.21; in the test with 4H3427-bA it was 1.19; with 4H349-bA, -0.396; with 4H2859-bA it was 1.6; in the test with 4H2931-bA, 2.07. Moreover, the interaction score is 0.942 in the test with 4H3364-bA; 0.311 in the test with 4H3381-bA; 1.79 with P5SH; -0.475 with 4H2760-bA; -0.323 with 4H949-bA.
Turning to DKIAALKAEIAALEYENAALEAENAALEG [O11], the interaction score in the test with O6 was -2.37; with O5 it was -2.06; with O14, -2.48; with O3, -1.74; in the test with O7, -1.85; in the test with O11 it was -2.47. Also, the interaction score with O12 is 2; in the test with O8, -2.51; with O16, -2.6; with P3A-bS it was 0.868; with O15, -2.22; with O9, -2.14. The results for the interaction score in the test with O4, with O13 and in the test with O2 were 1.77, -1.9 and -2.18, respectively.
On to DENQQLEQKIQELKQEIQELEWENQELKQ [4H1348-bN], for which the interaction score was 0.224 with 4H3974-bN; 0.08 in the test with 4H3298-bN; -0.781 in the test with 4H1985-bN; -0.135 in the test with 4H626-bN; -0.122 in the test with 4H3277-bN; -0.958 in the test with 4H3817-bN. For the same molecule, the interaction score with 4H1544-bN is -1.46; with 4H3497-bN, -0.431; with 4H906-bN, -0.116; with 4H1373-bN it was -0.955; with 4H3926-bN, -0.478; with 4H850-bN it was 0.761. Also, the interaction score was -0.5 in the test with 4H1449-bN; -0.12 in the test with 4H3628-bN; 0.123 in the test with 4H570-bN; -0.556 with P6bH1; -0.707 with 4H1899-bN; -0.748 with 4H3858-bN. The interaction score with 4H1710-bN was -1.09; in the test with 4H1348-bN, -1.55; in the test with 4H591-bN it was -1.4; in the test with 4H3175-bN, -0.302; with 4H3613-bN, -0.0173; with 4H3162-bN it was -0.0481. The molecule also returned an interaction score in the test with 4H3462-bN of -0.171.

For the origin of these results see publication PMC10397247.
